Data taken from publication PMC11249618, “Presenilin2 D439A Mutation Induces Dysfunction of Mitochondrial Fusion/Fission Dynamics and Abnormal Regulation of GTPase Activity” (Molecular Neurobiology, 2023).

Target: T1, His-Miro2(220–592) (UniProt Q8IXI1 220-592)
T1 construct: Mitochondrial Rho GTPase 2 (Miro2), amino acids 220–592, in pET-32a; source: E. coli BL21, purified
Experiment: pull-down; GST pull-down of recombinant GST-PS2 fragments with recombinant His-Miro2 fragments; bound material eluted with SDS sample buffer, SDS-PAGE and Western blot (Fig. 5C, D)
Settings: both partners purified

T1 sequence (Q8IXI1 220-592): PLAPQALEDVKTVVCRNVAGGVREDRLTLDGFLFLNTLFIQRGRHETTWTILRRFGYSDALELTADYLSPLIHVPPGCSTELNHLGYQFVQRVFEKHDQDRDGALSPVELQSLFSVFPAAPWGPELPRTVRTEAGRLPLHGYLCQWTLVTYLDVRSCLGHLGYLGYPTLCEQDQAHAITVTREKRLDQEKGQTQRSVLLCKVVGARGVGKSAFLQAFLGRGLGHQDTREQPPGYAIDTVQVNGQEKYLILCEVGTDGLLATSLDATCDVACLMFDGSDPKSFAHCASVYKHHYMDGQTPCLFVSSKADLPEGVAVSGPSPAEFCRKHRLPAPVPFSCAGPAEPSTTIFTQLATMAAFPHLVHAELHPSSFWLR

B1: GST-PS2(271–361) (domain or fragment)
chain: not shown
notes: source: E. coli BL21, purified
binding result: binds
